US10808024B2, “Antibodies against immunocomplexes comprising cyanobacterial cyclic peptide hepatotoxins” (priority 2015, dated 2020)
Changes are numbered by the printed parent chain. Entries after “also recorded” stand apart in the source; their conditions may differ.

B1: SA51F6: group-specific anti-immunocomplex antibody (antibody, V domains shown)
VH: EVQLLESGGGLVQPGGSLRLSCAASGFTFSDYWMHWVRQAPGKGLEWVSEIWYSSGYTNYADSVKGRFTISRDNSKNTLYLQMNSLRAEDTAVYYCARDAFPWDVFDYWGQGTLVTVSS
VL: EIVLTQSPGTLSLSPGERATLSCRASQSVSSSYLAWYQQKPGQAPRLLIYGASSRATGVPDRFSGSGSGTDFTLTISRLEPEDFAVYYCQQSSSTPWTFGQGTKVEIKRT
modifications: Clone SA51F6; DOMAIN (31)..(35) CDR1; DOMAIN (50)..(66) CDR2; DOMAIN (99)..(108) CDR3; DOMAIN (24)..(35) CDR1; DOMAIN (51)..(57) CDR2; DOMAIN (90)..(98) CDR3
B2: SA60A1: subgroup specific anti-IC antibody with MC-LR preferring specificity (antibody, V domains shown)
VH: EVQLLESGGGLVQPGGSLRLSCAASGFTFSPYYMHWVRQAPGKGLEWVSYITPYDGYTDYADSVKGRFTISRDNSKNTLYLQMNSLRAEDTAVYYCARYSYVGSVRTRVFDYWGQGTLVTVSS
VL: B1 VL with Y33N, S93Y, T95Y
modifications: Clone SA60A1; DOMAIN (31)..(35) CDR1; DOMAIN (50)..(66) CDR2; DOMAIN (99)..(112) CDR3; DOMAIN (24)..(35) CDR1; DOMAIN (51)..(57) CDR2; DOMAIN (90)..(98) CDR3
B3: SA42E10: MC subgroup-specific anti-IC binder (antibody, V domains shown)
VH: EVQLLESGGGLVQPGGSLRLSCAASGFTFSDYAMHWVRQAPGKGLEWVSSIIPYTGTTDYADSVKGRFTISRDNSKNTLYLQMNSLRAEDTAVYYCARTDDLIGHYDVYYYFDYWGQGTLVTVSS
VL: B1 VL with T95L
modifications: Clone SA42E10; DOMAIN (31)..(35) CDR1; DOMAIN (50)..(66) CDR2; DOMAIN (99)..(114) CDR3; DOMAIN (24)..(35) CDR1; DOMAIN (51)..(57) CDR2; DOMAIN (90)..(98) CDR3
B4: SA41F2: XR subgroup-specific anti-IC antibody (antibody, V domains shown)
VH: EVQLLESGGGLVQPGGSLRLSCAASGFTFSNYGMHWVRQAPGKGLEWVSEIDYVDGNTYYADSVKGRFTISRDNSKNTLYLQMNSLRAEDTAVYYCAREVYAHGIAAFDYWGQGTLVTVSS
VL: B1 VL with Y33A, S92Y
modifications: Clone SA41F2; DOMAIN (31)..(35) CDR1; DOMAIN (50)..(66) CDR2; DOMAIN (99)..(110) CDR3; DOMAIN (24)..(35) CDR1; DOMAIN (51)..(57) CDR2; DOMAIN (90)..(98) CDR3
B5: SA51H4: MC-XR subgroup-specific anti-IC antibody (antibody, V domains shown)
VH: B1 VH with Y53P, S54Y, S55D, A100P, F101G, W103E, D104G
VL: B1 VL with Y33N, T95Y
modifications: Clone SA51H4; DOMAIN (31)..(35) CDR1; DOMAIN (50)..(66) CDR2; DOMAIN (99)..(108) CDR3; DOMAIN (24)..(35) CDR1; DOMAIN (51)..(57) CDR2; DOMAIN (90)..(98) CDR3
B6: SA41A5: MC-XR subgroup-specific anti-IC antibody (antibody, V domains shown)
VH: EVQLLESGGGLVQPGGSLRLSCAASGFTFSNYYMHWVRQAPGKGLEWVSEINYDGETDYADSVKGRFTISRDNSKNTLYLQMNSLRAEDTAVYYCARDGFWYGTAFDYWGQGTLVTVSS
VL: B1 VL with Y33A, S92M, S93H
modifications: Clone SA41A5; DOMAIN (31)..(35) CDR1; DOMAIN (50)..(66) CDR2; DOMAIN (99)..(108) CDR3; DOMAIN (24)..(35) CDR1; DOMAIN (51)..(57) CDR2; DOMAIN (90)..(98) CDR3
B7: SA56D5: subgroup specific anti-IC antibody with MC-LR preferring specificity (antibody, V domains shown)
VH: EVQLLESGGGLVQPGGSLRLSCAASGFTFSDYYMHWVRQAPGKGLEWVSYIDGNGGYTDYADSVKGRFTISRDNSKNTLYLQMNSLRAEDTAVYYCARYWFDSSYKHRYFDYWGQGTLVTVSS
VL: B1 VL with Y33N, T95Y
modifications: Clone SA56D5; DOMAIN (31)..(35) CDR1; DOMAIN (50)..(66) CDR2; DOMAIN (99)..(112) CDR3; DOMAIN (24)..(35) CDR1; DOMAIN (51)..(57) CDR2; DOMAIN (90)..(98) CDR3
B8: SA52C2: MC subgroup-specific anti-IC binder (antibody, V domains shown)
VH: EVQLLESGGGLVQPGGSLRLSCAASGFTFSSDVMHWVRQAPGKGLEWVSEIDPSDGTTNYADSVKGRFTISRDNSKNTLYLQMNSLRAEDTAVYYCARSYLDWPLDVWGQGTLVTVSS
VL: B1 VL with Y33N, S92M, S93H
modifications: Clone SA52C2; DOMAIN (31)..(35) CDR1; DOMAIN (50)..(66) CDR2; DOMAIN (99)..(107) CDR3; DOMAIN (24)..(35) CDR1; DOMAIN (51)..(57) CDR2; DOMAIN (90)..(98) CDR3
B9: SA59G2: variant-specific anti-IC antibody, MC-LR (antibody, V domains shown)
VH: EVQLLESGGGLVQPGGSLRLSCAASGFTFSNYYMHWVRQAPGKGLEWVSYIDPVGGETYYADSVKGRFTISRDNSKNTLYLQMNSLRAEDTAVYYCARYYYWGYRAFDYWGQGTLVTVSS
VL: B1 VL with Y33A, T95L
modifications: Clone SA59G2; DOMAIN (31)..(35) CDR1; DOMAIN (51)..(66) CDR2; DOMAIN (99)..(109) CDR3; DOMAIN (24)..(35) CDR1; DOMAIN (51)..(57) CDR2; DOMAIN (90)..(98) CDR3
B10: SA33D5: XR subgroup-specific anti-IC antibody (antibody, V domains shown)
VH: EVQLLESGGGLVQPGGSLRLSCAASGFTFSSDVMHWVRQAPGKGLEWVSEIDPNDGSTRYADSVKGRFTISRDNSKNTLYLQMNSLRAEDTAVYYCAREYGAVSWSVVVFDYWGQGTLVTVSS
VL: B1 VL with Y33N, T95Y
modifications: Clone SA33D5; DOMAIN (31)..(35) CDR1; DOMAIN (50)..(66) CDR2; DOMAIN (99)..(112) CDR3; DOMAIN (24)..(35) CDR1; DOMAIN (51)..(57) CDR2; DOMAIN (90)..(98) CDR3
B11: SA56E7: variant-specific anti-IC antibody, MC-LR (antibody, V domains shown)
VH: EVQLLESGGGLVQPGGSLRLSCAASGFTFSRYYMHWVRQAPGKGLEWVSYIWPVDGETDYADSVKGRFTISRDNSKNTLYLQMNSLRAEDTAVYYCARYVYGNSVGRVFDYWGQGTLVTVSS
VL: B1 VL with Y33N, S93Y, T95Y
modifications: Clone SA56E7; DOMAIN (31)..(35) CDR1; DOMAIN (50)..(66) CDR2; DOMAIN (99)..(111) CDR3; DOMAIN (24)..(35) CDR1; DOMAIN (51)..(57) CDR2; DOMAIN (90)..(98) CDR3
B12: SA57A3: subgroup specific anti-IC antibody with MC-LR preferring specificity (antibody, V domains shown)
VH: EVQLLESGGGLVQPGGSLRLSCAASGFTFSDYYMHWVRQAPGKGLEWVSYINTYDGNTDYADSVKGRFTISRDNSKNTLYLQMNSLRAEDTAVYYCARYYNPYTRRRVFDYWGQGTLVTVSS
VL: B1 VL with Y33N, T95Y
modifications: Clone SA57A3; DOMAIN (31)..(35) CDR1; DOMAIN (50)..(66) CDR2; DOMAIN (99)..(111) CDR3; DOMAIN (24)..(35) CDR1; DOMAIN (51)..(57) CDR2; DOMAIN (90)..(98) CDR3
B13: SA52B4: XR subgroup-specific anti-IC antibody (antibody, V domains shown)
VH: EVQLLESGGGLVQPGGSLRLSCAASGFTFSDYSMHWVRQAPGKGLEWVSEIWTNTGYTNYADSVKGRFTISRDNSKNTLYLQMNSLRAEDTAVYYCARESWEWFSIVFDYWGQGTLVTVSS
VL: B1 VL with Y33A, S92Y
modifications: Clone SA52B4; DISULFID (31)..(35) CDR1; DISULFID (50)..(66) CDR2; DISULFID (99)..(110) CDR3; DOMAIN (24)..(35) CDR1; DOMAIN (51)..(57) CDR2; DOMAIN (90)..(98) CDR3
B14: SA51D12: variant-specific anti-IC antibody, MC-LR (antibody, V domains shown)
VH: EVQLLESGGGLVQPGGSLRLSCAASGFTFSSDVMHWVRQAPGKGLEWVSVISGYDGYTRYADSVKGRFTISRDNSKNTLYLQMNSLRAEDTAVYYCARGVPYLYGAYSFDYWGQGTLVTVSS
VL: EIVLTQSPGTLSLSPGERATLSCRASQSVSSSNLAWYQQKPGQAPRLLIYGASSRATGVPDRFSGSGSGTDFTLTISRLEPEDFAVYYCQQSSTPWTFGQGTKVEIKRT
modifications: Clone SA51D12; DOMAIN (31)..(35) CDR1; DOMAIN (50)..(66) CDR2; DOMAIN (99)..(111) CDR3; DOMAIN (24)..(35) CDR1; DOMAIN (51)..(57) CDR2; DOMAIN (90)..(98) CDR3

System: immunocomplexes of CCPH variants and anti-Adda mAb
Assay: Screening and cross-reactivity studies of anti-IC scFv-AP binders, specificity class
Type: binding

Molecule | Specificity of anti-IC antibody (CCPH immunocomplexes recognized)
B1 | group-specific
B2 | MC-LR preferring specificity
B3 | MC subgroup-specific
B4 | specific for a subgroup XR
B5 | specific for a subgroup MC-XR
B6 | specific for a subgroup MC-XR
B7 | MC-LR preferring specificity
B8 | MC subgroup-specific
B9 | recognize immunocomplexes comprising MC-LR
B10 | specific for a subgroup XR
B11 | recognize immunocomplexes comprising MC-LR
B12 | MC-LR preferring specificity
B13 | specific for a subgroup XR
B14 | recognize immunocomplexes comprising MC-LR; also recorded: MC-LR and MC-LZ specific
